In the supplement of paper PMC9732359:
± gives the uncertainty stated by the source.

Assay: protein stability index of a GFP-peptide fusion (yeast GPS) (PSI 1-4); higher = more stable; sorted into four equal gates, so the index is relative within each strain
Summary of the method: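 Yeast carrying a pooled library were grown to mid-log phase in leucine-free medium. Each library plasmid expresses Cherry and has a tiled 17-residue yeast protein peptide fused downstream of GFP. Cells were sorted into four equal gates by GFP/Cherry ratio, and plasmids from each gate were PCR-amplified, Illumina-sequenced and assigned to strains by barcode. Summing, across gates, the read frequency times the gate number gave each peptide's protein stability index.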

Sequence	protein stability index (doa10∆)	protein stability index (pdr5∆)	protein stability index (ubr1∆)	protein stability index (san1∆)
TLQLGQEFQLKQINHQG [RPB4]	3.22 ± 0.26	3.28 ± 0.15	3.38 ± 0.24	
TLSEPVQGELKPTVILK [FAS1]	2.23 ± 0.054	2.22 ± 0.059	1.63 ± 0.038	2.08 ± 0.072
TLVKGPKEPRLKSQMDT [SKI6]	3.09 ± 0.25	3.05 ± 0.13	3.33 ± 0.091	
TMANILYYPQKPLGTTR [RPB2]	1.77 ± 0.057	2.47 ± 0.095	1.45 ± 0.04	2.27 ± 0.074
TMFTAEQSELLKAQITS [SNF2]	2.19 ± 0.046	2.5 ± 0.056	2.49 ± 0.036	2.57 ± 0.058
TMTMDVFNDAHVLNKVT [RPN1]	2.26 ± 0.065	2.25 ± 0.053	2.25 ± 0.045	2.4 ± 0.073
TMTYEEVAKRLVELMFI [FAS1]	1.79 ± 0.067	2.22 ± 0.071	2.14 ± 0.069	2.52 ± 0.084
TNAAFPFHDPEARLFNI [ECM29]	3.04 ± 0.1	2.87 ± 0.12	2.38 ± 0.072	2.42 ± 0.11
TNGNNAGGGSNKSSVRP [MED6]	3.19 ± 0.14	3.47 ± 0.097	3.11 ± 0.088	2.77 ± 0.1
TNIHEPQYINYSSIPSL [SSN2]	2.89 ± 0.23	2.46 ± 0.14		
TNKGPLAQIWLASNMSN [MCD1]	2.33 ± 0.096	1.26 ± 0.054	1.17 ± 0.056	1.26 ± 0.2
TNKLLFKRVSQTFEAKL [NUT1]	1.78 ± 0.048	1.7 ± 0.046	1.83 ± 0.04	1.74 ± 0.087
TNTHPNFLSKIRNINVQ [SNF2]	1.44 ± 0.049	1.68 ± 0.063	1.34 ± 0.031	1.49 ± 0.09
TPDPSELAAKEEPAKEE [FAS2]	2.718 ± 0.024	2.821 ± 0.024	2.684 ± 0.019	2.693 ± 0.026
TPDTKNFFHAKKKDPVN [SNF12]	3.29 ± 0.097	2.97 ± 0.079	3.17 ± 0.1	3.1 ± 0.068
TPEKDLFIGLFTRPLFV [YCS4]	1.54 ± 0.084	1.32 ± 0.079	1.45 ± 0.096	1.96 ± 0.27
TPMTRISELPPQIRQEI [YGL172W/NUP49]	2.84 ± 0.074	3.11 ± 0.055	2.86 ± 0.043	2.65 ± 0.051
TPPVVVVGVVGYVETPR [RPL3]	1.81 ± 0.086	2.33 ± 0.068	2.86 ± 0.17	1.46 ± 0.072
TPSDLSESGSKLNVDQF [POP1]	3.46 ± 0.098	3.4 ± 0.094	3.21 ± 0.1	3.19 ± 0.072
TPSFSFGAKSDENKAGA [YJL041W/NSP1]	3.51 ± 0.28	3.19 ± 0.16		3.17 ± 0.15

Sequence	protein stability index (doa10∆)	protein stability index (pdr5∆)	protein stability index (ubr1∆)	protein stability index (san1∆)
TQAIADIVQYHLELYTS [PRE3]	2.07 ± 0.064	1.72 ± 0.057	2.01 ± 0.042	1.77 ± 0.069
TQDESEIKDAETSCDNY [SMC4]	2.26 ± 0.083	2.62 ± 0.073	2.98 ± 0.053	3.4 ± 0.056
TQEFSKNYTTETDNEMN [SIR3]	3.31 ± 0.12	3.49 ± 0.064	3.29 ± 0.055	3.64 ± 0.075
TQKDSARVSPRNNVANK [YAR002W/NUP60]	3.22 ± 0.1	3.52 ± 0.12	3.02 ± 0.072	3.23 ± 0.096
TQKRLAASVVGVGKRKV [RPL19A]	1.33 ± 0.1	1.32 ± 0.16	1.79 ± 0.11	1.13 ± 0.11
TQLDKLRPRKDSKDGTT [SMB1]	2.26 ± 0.28	2.15 ± 0.28	1.77 ± 0.2	
TQLKKRAVSGVELRIYV [POP7]	2.66 ± 0.13	2.23 ± 0.11	2.78 ± 0.16	2.44 ± 0.14
TQVRVEFLEDTSRTIVR [RPS28A]	3.37 ± 0.24	3.06 ± 0.13	3.3 ± 0.14	2.91 ± 0.095
TRDEETTKLAFLVEYEG [SIR4]	3.02 ± 0.14	3.06 ± 0.095	2.96 ± 0.13	
TRDETVSLIKKYKLISR [YML103C/NUP188]	2.48 ± 0.1	2.56 ± 0.13	2.41 ± 0.12	2.51 ± 0.11
TRFKAVVVVGDSNGHVG [RPS2]	1.87 ± 0.05	1.96 ± 0.064	1.99 ± 0.043	1.84 ± 0.11
TRIFQALPRKLRRRTAS [POP1]	2.33 ± 0.07	3.23 ± 0.11	2.73 ± 0.074	2.68 ± 0.14
TRKGYIPSSKYAYMMNS [YLR018C/POM34]	3.08 ± 0.11	2.73 ± 0.12	2.65 ± 0.14	2.98 ± 0.21
TRKSLNNAVRFSKQCLI [ECM29]	2.15 ± 0.06	2.96 ± 0.061	2.56 ± 0.05	2.42 ± 0.06
TRPISSQVLDLAKKIAP [SMC2]	2.72 ± 0.15	2.44 ± 0.097	1.95 ± 0.14	2.59 ± 0.28
TRTIKQNNFHVLIDLLN [RGR1]	1.75 ± 0.079	1.62 ± 0.13	1.86 ± 0.12	1.87 ± 0.15
TSADLKSKAEELTQVPS [UBP6]	3.16 ± 0.21	3.22 ± 0.12	3.12 ± 0.18	2.79 ± 0.13
TSDNLLTITKAAGANVD [RPP1B]	1.97 ± 0.066	2.13 ± 0.056	2.26 ± 0.082	3.05 ± 0.08
TSDSESTLYKYLKESKR [SWI3]	3.11 ± 0.084	2.66 ± 0.11	2.74 ± 0.054	2.89 ± 0.12
